{
  "source": "patent US11840557B2",
  "about": "“Wnt7 variants capable of activating g-protein coupled receptor (Gpr)124/Reck/frizzled/lipoprotein receptor-related protein (LRP)-mediated Wnt signaling” (UNIVERSITÉ LIBRE DE BRUXELLES, priority 2018, dated 2023)",
  "molecules": {"B1": {"name": "Wnt7a^1-278: the N-terminal domain of Wnt7a, single domain truncated variant (protein)", "chain": "LGASIICNKIPGLAPRQRAICQSRPDAIIVIGEGSQMGLDECQFQFRNGRWNCSALGERTVFGKELKVGSREAAFTYAIIAAGVAHAITAACTQGNLSDCGCDKEKQGQYHRDEGWKWGGCSADIRYGIGFAKVFVDAREIKQNARTLMNLHNNEAGRKILEENMKLECKCHGVSGSCTTKTCWTTLPQFRELGYVLKDKYNEAVHVEPVRASRNKRPTFLKIKKPLSYRKPMDTDLVYIEKSPNYC", "modifications": "left off: small tags and cut ends", "notes": "the N-terminal domain of Wnt7a, single domain truncated variant"}},
  "key": {"HA-Reck": {"target": "T1, HA-Reck (Homo sapiens, UniProt O95980)", "T1 construct": "expressed in transfected cells; host or cells: GPR124-/-;RECK-/- HEK293 (STF) cells, pCS2 / CMV promoter", "T1 sequence (O95980 23-942)": "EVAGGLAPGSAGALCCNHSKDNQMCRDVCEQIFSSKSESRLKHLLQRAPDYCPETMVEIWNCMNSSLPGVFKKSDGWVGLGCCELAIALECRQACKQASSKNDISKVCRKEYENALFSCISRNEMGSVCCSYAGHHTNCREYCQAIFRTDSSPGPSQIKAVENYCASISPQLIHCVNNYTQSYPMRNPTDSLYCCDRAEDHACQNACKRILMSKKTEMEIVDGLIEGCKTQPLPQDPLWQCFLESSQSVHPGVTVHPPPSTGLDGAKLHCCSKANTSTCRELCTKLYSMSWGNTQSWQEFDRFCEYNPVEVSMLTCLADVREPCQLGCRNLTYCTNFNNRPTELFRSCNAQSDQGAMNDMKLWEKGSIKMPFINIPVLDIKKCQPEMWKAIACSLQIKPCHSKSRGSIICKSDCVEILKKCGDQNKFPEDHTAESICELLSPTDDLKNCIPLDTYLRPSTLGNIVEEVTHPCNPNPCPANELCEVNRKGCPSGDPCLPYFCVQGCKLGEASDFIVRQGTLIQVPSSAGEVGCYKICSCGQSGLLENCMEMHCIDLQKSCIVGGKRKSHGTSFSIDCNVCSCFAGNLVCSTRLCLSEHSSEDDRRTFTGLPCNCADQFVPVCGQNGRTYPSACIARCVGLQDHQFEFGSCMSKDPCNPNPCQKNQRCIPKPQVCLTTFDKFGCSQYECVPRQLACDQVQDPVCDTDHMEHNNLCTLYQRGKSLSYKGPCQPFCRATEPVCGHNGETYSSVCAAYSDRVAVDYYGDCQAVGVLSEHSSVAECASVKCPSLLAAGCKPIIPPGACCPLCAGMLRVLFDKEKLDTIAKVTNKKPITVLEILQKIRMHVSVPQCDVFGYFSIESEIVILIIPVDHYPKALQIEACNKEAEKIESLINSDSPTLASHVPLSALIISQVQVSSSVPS", "experiment": "Proximity ligation assay (PLA), anti-V5/anti-HA, V5-tagged Wnt ligand and HA-Reck in GPR124−/−;RECK−/− cells", "assay_type": "cell-based", "details": "GPR124−/−;RECK−/− cells co-expressing HA-Reck", "description": "1.7. Immunofluorescence and Proximity Ligation Assay Cells were grown in glass-coated chambers (IBIDI, Martinsried, Germany) and transfected after 24 h with Lipofectamine 2000 (Life Technologies, Carlsbad, Calif.). Cells were fixed with 4% paraformaldehyde for 10 min at room temperature (RT) 48 h post transfection. For immunofluorescence staining (IF), cells were blocked in 1% BSA-PBS for 30 min before being exposed to primary antibodies for 1 h at RT. After three PBS washes, cells were incubated with secondary antibodies for 1 h at RT. For anti-V5 staining of Wnt ligands, cells were additionally washes for 10 min in PBS 0.1% Tween 20 before incubation with the secondary antibody solution. For the proximity ligation assay (PLA) (Sigma-Aldrich, St. Louis, Mo.), cells were blocked for 30 min at 37° C. with the Blocking solution provided by the manufacturer before being incubated with the primary antibodies for 1 h at RT. Cells were washed three times and incubated with the PLA probes anti-rabbit PLUS and anti-mouse MINUS for 1 h at 37° C. After two PBS washes, cells were incubated with the Duolink Ligation solution for 30 min at 37° C. After two PBS washes, cells were incubated with the Duolink Amplification solution for 100 min at 37° C. The following antibodies were used: mouse monoclonal anti-V5 (R96025, Life Technologies, Carlsbad, Calif.) at 1:500 for IF and PLA, purified polyclonal rabbit anti-HA (H6908, St. Louis, Mo.) at 1:400 for IF and PLA and anti-mouse Alexa488-conjugated secondary antibody (Thermo Fisher Scientific, Waltham, Mass.) at 1:5000. Cells were stained for 2 min with Hoechst diluted to 10 μg ml-1 in PBS.\nCells and zebrafish embryos were imaged with an LSM710 confocal microscope and images were processed in ImageJ. Images of eye fusion phenotypes were taken on Leica M165 FC. Representations of brain vasculature were generated using Imaris software (BitPlane, Zurich, Switzerland). The percentage of PLA positive (PLA+) areas and DAPI positive (DAPI+) areas were calculated using ImageJ on images containing about 50 to 100 cells. The PLA+ area was measured after manually applying a fixed threshold. The DAPI+ area was measured after applying the “default” thresholding method in Image J."}, "all 10 Fz genes": {"test_system": "all 10 Fz genes", "experiment": "STF luciferase assay after co-transfection with all 10 Fz genes, no Gpr124/Reck", "assay_type": "cell-based", "details": "in the absence of Gpr124/Reck", "description": "Cells were plated into 96-well plates and transfected after 24 h in triplicate with Lipofectamine 2000 (Invitrogen, Carlsbad, Calif.). The amount of plasmid DNA transfected per well was optimized for each expression vector: Renilla luciferase (0.5 ng), Wnt (20 ng), Fz (5 ng), LRP (2.5 ng), Gpr124 (10 ng), Reck (10 ng) unless otherwise indicated. The total amount of DNA was adjusted to 100 ng per well with the empty pCS2 vector. Cells were harvested in passive lysis buffer (E1960, Promega, Wisconsin) and the activities of the Firefly and Renilla luciferases were measured sequentially using the Dual-Luciferase Reporter Assay system (E1960, Promega, Madison, Wis.) 48 h post-transfection."}},
  "data": [
    {"molecule": "B1", "values": [
      {"measurement": "Reck binding (anti-V5/anti-HA PLA signal)", "setting": "HA-Reck", "value": "still binds Reck"},
      {"measurement": "Reck binding (anti-V5/anti-HA PLA signal)", "setting": "HA-Reck; listed as Wnt7a^NTD", "value": "bound to Reck as potently as full-length Wnt7a"},
      {"measurement": "signaling through any Fz", "setting": "all 10 Fz genes", "value": "failed to signal through any Fz"}
    ]}
  ]
}
